We go through six molecules from patent publication US12677828B2, “Lipid encasing amphipathic peptides” (Kansas State University Research Foundation, priority 2019, dated 2026).

In one data set the test system is M. sexta larvae. The data set can be described thus: Persistence assay, 3-day and 5-day waiting period before adding larvae. The class given is in vivo, Manduca sexta. The note with it: Novarulon 0.02%; both waiting periods (3-day, 5-day) before adding first instar larvae. The procedure: Subsequently, a persistence assay was conducted to see if the LEAP colloidal particles could protect the active ingredient from environmental degradation. Two studies were conducted, one with a 3-day (FIG. 8) and the other with a 5-day (FIG. 9) waiting period before adding the first instar larvae. The methods used to prepare the LEAP colloidal particle encased materials and the preparation of the coated leaves were identical as described above, except that the leaf discs were allowed to sit in the incubator under the previously described conditions outlined above for the designated time period. After the designated waiting period, 1-day old (first instar) M. sexta larvae were place on the treated leaves. Each day the number of dead larvae were counted. Examining FIGS. 8 and 9, it is clear to see that the LEAP colloidal particles containing the active ingredient Novarulon started killing faster than the Novarulon control. […] Since the Novarulon by itself was still active it appears that coating the Novarulon containing oil droplet with the peptide appears to have been ingested more efficiently such that the lethal dose was achieved more rapidly.

The test system of another data set is Aspergillus nidulans. Kind of data set: Antifungal activity on spore seeded plates (1% skim milk agar), Example 3. The class given is cell-based. The note with it: 0.5% Captan in 1:1 propionic acid/soy oil, applied as mixture alone (label Captan) or encased in the named peptide; 5 to 40 μL spotted. The procedure: A 0.5% solution of Captan was prepared in a 1:1 mixture of propionic acid and soy oil (final volume of 10 μL for each peptide). The solution was added to 1 mg of dried peptide. After incubating for 15 min, water (490 μL, pH=3) was added dropwise, then sonicated in a bath sonicator for 5 min at 37° C. and allowed to stand for 20 min. The sample was then centrifuged at room temperature for 10 min at 14K×g. At this point each peptide-lipid complex formed a whitish film on the surface of the water. The volume of water was reduced using a Pipetman leaving a final volume of 150 μL. The solution was again vortexed to resuspend the colloids. An illustration of the colloidal particle with the active ingredient distributed throughout the colloidal body is shown in FIG. 3. A number of different controls were tested along with the peptides prepared with all of the components: soy oil only, soy oil+propionic acid, soy oil+propionic acid+Captan. Volumes of from 5 to 40 μL were spotted on spore seeded plates of Aspergillus nidulans grown on 1% skim milk agar gel) yielding 0.33 and 1.33 μg of active agent delivered, respectively (FIG. 4).
In FIG. 4, lawns of A. were seeded just before testing. The actively growing fungus appears greenish yellow in color. For controls (FIG. 5A) soy oil and soy oil+propionic acid (1:1, v/v) were applied directly to the plates at the indicated volumes. […] When the 1:1 soy plus propionic acid was separately encased using the two peptides (FIG. 5B, columns 1 and 2) there was minimal antifungal activity. In FIG. 5C, column 1, Captan was dissolved in the propionic acid prior to mixing with the soy oil.

The subject of the next data set is A. nidulans. The data set can be described thus: Growth inhibition, Captan alone or LEAP encapsulated at different concentrations, Example 4. The class given is cell-based, Aspergillus nidulans. The following applies: 50 μL per plate. The protocol:
In this example, the effectiveness of Captan alone or encased in a LEAP colloidal particle on A. nidulans growth was compared. Different concentrations of Captan were tested for growth inhibition when applied directly to freshly seeded fungi growing on 1% milk plates or after encapsulation as a colloidal particle with a LEAP (h5F-L). Captan was dissolved in a formulated (1:1:2) solution containing propionic acid, soy oil, and a pesticide synergist, Piperonyl butoxide (PBO). The resulting active solution was diluted to the following concentrations: 1%, 0.1%, 0.05%, 0.01%, 0.005%, 0.001%. A volume of 50 μL of the 1:1:2 solution containing the fungicide was combined with 1 mmole of dry peptide and then allowed to stand for 20 minutes. Deionized water was then added to the colloidal mixture to raise the total volume to 1 mL, followed by sonicating the mixture for 5 minutes, and then incubating for 60-90 minutes. A volume of 50 μL for each test solution was added to the center of each plate (FIG. 6).

The conditions of data set [1]: cited from earlier work.
Data set [2] relates to leaves of Vicia faba (Fava beans). Kind of data set: Effects of formulations sprayed on leaves. The following applies: Vicia faba (fava bean), in vivo, 24 h. The protocol:
In this study, we looked at the effects of the Captan fungicide formulation with and without the LEAP peptide when applied to the leaves of Vicia faba (Fava beans). Three formulations were prepared for this experiment: […]
Deionized water was added to each formulation to a final volume 1 mL and allowed to stand at room temperature for 60-90 min. […]

Data set [3] can be described thus: Average size and zeta potential by light scattering (ZetaPlus), soy oil colloids. The class given is physicochemical. The note with it: peptide colloids in high purity soy oil. The procedure:
Peptide colloids were prepared with either Ac-FLIVI-KKKKK-CO-NH2 (SEQ ID NO:1, where X is F, “h5F-L”) or Ac-VLIVI-KKKKK-CO-NH2 (SEQ ID NO:1, where X is V, “h5V-L”), in high purity soy oil were tested for average size and zeta potential (surface charge) using light scattering on a ZetaPlus particle sizing instrument. A control was prepared using high purity soy oil mixed with water and sonicated.

The nature of data set [4]: Resizing by extrusion through 100 nm polycarbonate filters. The class given is physicochemical. The note with it: extruded through 100 nm polycarbonate filters. From the text:
Given that particle sizes for both peptides were above the nanoscale cutoff of 100 nm, the samples were subjected to resizing by extruding them through 100 nm polycarbonate filters. The […]-L particles were resized to about 80 nm after extrusion (data not shown). The […]-L particles could be resized to about 90 nm.

The nature of data set [5]: Dynamic light scattering of LEAP alone in water (micelles). The data set is classed as physicochemical. The note with it: 1 mg peptide in water, no excipient. The procedure: One mg of the LEAP (Ac-FLIVIKKKK-CONH2, SEQ ID NO:1, where X is F) was dissolved in 500 μL of DDI-RO water. The solution was sonicated for 10 min then allowed to rest at room temperature for approximately 60 min. This solution was further diluted to 10 mL with DDI-RO water prior to dynamic light scattering analysis. Light scattering data was recorded using an Anton-Parr Litesizer 500 instrument and processed using the proprietary ‘Kalliope’ analysis software. The DLS calculations indicated particles with a hydrodynamic diameter of 928.3 nm with peak numerical intensity at 120.09 nm and a polydispersity index of 229.1%.

The nature of data set [6]: Encapsulation of soy oil containing Nile Red dye by peptide. The data set is classed as physicochemical. The following applies: 22 μL soy oil with Nile Red, 480 μL water. The protocol:
(§1) Initial encapsulation studies were carried out using high purity soy oil containing a lipid soluble dye, Nile Red. Studies were carried out using FLIVI-KKKKK (SEQ ID NO:1, where X is F). Increasing concentrations of the peptide (see FIG. 2) were prepared in Trifluoroethanol and dried in vacuo. To each tube, 22 μL of soy oil containing Nile Red dye (1 mg/mL) was added and allowed to stand for 15 min. Distilled/deionized water (480 μL) was then added and mixed repeatedly using a vortex mixer over a period of at least 5 min. The solution became somewhat cloudy as the dye containing colloids formed at the higher peptide concentrations. 25% was encapsulated at 0.5 mM peptide concentration with 80% encapsulated by the 1 mM peptide concentration. The colloids formed using the FLIVI-KKKKK (SEQ ID NO:1, where X is F) sequence remain stable in a water solution for extended periods of time (at least 12 months).

Data set [7] in a line: Stability of colloids in water solution. The class given is physicochemical. The following applies: soy oil colloids. The protocol: as §1

With “1-[3-chloro-4-phenyl]-3-urea [Novarulon]”, the killing of larvae entry in the data set on M. sexta larvae was “still active”.

Regarding `O=C1[C@H]2CC=CC[C@H]2C(=O)N1SC(Cl)(Cl)Cl` [Captan, (3aR,7aS)-2-[(Trichloromethyl)sulfanyl]-3a,4,7,7a-tetrahydro-1H-isoindole-1,3(2H)-dione], the antifungal activity entry with Aspergillus nidulans is listed as “not very effective”. The growth inhibition result in the data set with A. nidulans (0.1% concentration) is “only slight inhibition”; in the data set on A. nidulans (highest concentration (1%), propionic acid, soy oil, PBO (1:1:2)) it was “strong growth inhibition”. The “solubility in propionic acid” value in data set [1] (C3 organic acid, propionic acid) was “good solubility”. The “solubility in water relative to acetone and xylene (fold less)” value in data set [1] (water vs acetone, xylene) is 4000 fold.

For `CCC(=O)O` [propionic acid], the leaf damage entry in data set [2] is on record as “black spots on the leaves after 24 hr”.

For “Ac-FLIVI-KKKKK-CO-NH2 (Ac-FLIVIKKKKK-NH2) [h5F-L, lipid encasing amphipathic peptide]”, in [3], the GSD result is “GSD 1.618”, the “Median Diam.” value is “Median Diam. 363.8 nm” and the zeta potential came out at 46±2.5 mV. Besides, in [4], the “particle size after extrusion” value is “about 80 nm”. Also, the antifungal activity entry in the data set on Aspergillus nidulans is listed as “complete growth inhibition”. In addition, in [5], the peak numerical intensity is reported as 120.09 nm and the polydispersity index was 229.1%. Besides, the hydrodynamic diameter in data set [5] (diluted to 10 mL) is on record as 928.3 nm.

Take “Ac-VLIVI-KKKKK-CO-NH2 (Ac-VLIVIKKKKK-NH2) [h5V-L, lipid encasing amphipathic peptide]”: in data set [3], the GSD result is given as “GSD 1.528”, the “Median Diam.” value is recorded as “Median Diam. 216.5 nm” and the zeta potential was 43±1.6 mV. Further, the “particle size after extrusion” value in data set [4] is “about 90 nm”. For the same molecule, in the data set with Aspergillus nidulans, the antifungal activity entry is recorded as “a small amount of antifungal activity”.

Turning to “FLIVI-KKKKK (XLIVIKKKKK; (1)..(1) X is F or V)”, the results for the encapsulated in data set [6] (0.5 mM peptide concentration) and in data set [6] (1 mM peptide concentration) were 25% and 80%, respectively. Besides, the “colloids remain stable in a water solution” value in data set [7] was “at least 12 months”.
